This experiment concerns the target T1, mouse CD56 (mouse, UniProt P13595 20-711, limits assumed).
T1 construct: the construct is not described
Put plainly: ELISA on coated mouse CD56 ectodomain, IgG titrated, OD405. On the procedure: Protein was coated on ELISA plate wells at 50 ng/well in PBS at 4° C. overnight. After blocking of unbound surface with 2% non-fat dried milk in PBST, serially diluted antibody solutions were added, and incubated for 2 hours at 37° C. The bound human antibodies were detected with goat anti-human Fc specific IgG conjugated with horseradish peroxidase.
A general note: In an ELISA, binding on a coated surface is turned into a signal by an enzyme label.

The values that follow come from patent US20180214568A1 (US Dept. of Health and Human Services, published 2018).

A word on the EC50 (read off the curve): it is the concentration at which the effect is half-maximal. A higher EC50 (read off the curve) goes with a less potent agent.

T1 sequence (P13595 20-711 limits assumed): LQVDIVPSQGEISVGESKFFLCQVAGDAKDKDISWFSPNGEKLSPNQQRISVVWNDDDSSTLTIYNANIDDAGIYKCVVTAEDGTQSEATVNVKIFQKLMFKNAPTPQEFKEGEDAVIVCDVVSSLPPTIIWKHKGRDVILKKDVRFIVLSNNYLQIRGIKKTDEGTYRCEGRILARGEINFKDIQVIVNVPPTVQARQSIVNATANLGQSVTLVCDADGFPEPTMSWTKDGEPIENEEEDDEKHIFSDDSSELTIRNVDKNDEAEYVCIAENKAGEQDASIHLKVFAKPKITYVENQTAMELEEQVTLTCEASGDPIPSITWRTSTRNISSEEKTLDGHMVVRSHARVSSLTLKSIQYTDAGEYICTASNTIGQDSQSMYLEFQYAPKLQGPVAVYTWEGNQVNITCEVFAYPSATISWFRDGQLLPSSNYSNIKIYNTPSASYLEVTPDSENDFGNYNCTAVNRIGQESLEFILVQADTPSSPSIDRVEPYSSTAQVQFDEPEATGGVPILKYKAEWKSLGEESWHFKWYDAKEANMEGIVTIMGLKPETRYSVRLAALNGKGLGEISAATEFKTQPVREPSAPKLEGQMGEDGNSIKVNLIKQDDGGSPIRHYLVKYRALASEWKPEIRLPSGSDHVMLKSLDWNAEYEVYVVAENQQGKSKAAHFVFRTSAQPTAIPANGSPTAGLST

B1: m900 IgG1 (antibody, V domains shown)
VH: not shown
VL: EIVLTQSPATLSLSPGERATLSCRASQSVSSYLAWYQQKPGQAPRLLIYDASNRATGIPARFSGSGSGTDFTLTISSVQAEDVGVYYCQQYHGTPTFGQGTKVEIKR
On to B1, for which the binding result was “no binding (tested: 1000 nM)”.

B2: m906 IgG1 (antibody, V domains shown)
VH: EVQLVQSGAEVKKPGSSVKVSCKASGGTFTGYYMHWVRQAPGQGLEWMGWINPNSGGTNYAQKFQGRVTMTRDTSISTAYMELSRLRSDDTAVYYCARDLSSGYSGYFDYWGQGTLVTVSS
VL: DVVMTQSPLSLPVTPGEPASISCRSSQSLLHSNGYNFLDWYLQKPGQSPQLLIYLGSNRASGVPDRFSGSGSGTDFTLKISRVEADDVGVYYCMQSLQTPWTFGHGTKVEIKR
As to B2, the half-maximal effective concentration (EC50 (read off the curve)) was around 0.08 nM.
